Source: patent US20050037969A1 (ARBOR VITA, published 2005)
Ends that are not written are not given here. * marks the point of attachment. Biotin = O=C1N[C@H]2[C@H](CS[C@H]2CCCCC(=O)*)N1

T1: GST-PTN-4 PDZ domain fusion protein (Homo sapiens (Human), UniProt P29074 517-605)
T1 construct: also called protein-tyrosine phosphatase meg1; not shown: glutathione S-transferase encoded by vector pGEX-3X (Pharmacia)
T1 sequence: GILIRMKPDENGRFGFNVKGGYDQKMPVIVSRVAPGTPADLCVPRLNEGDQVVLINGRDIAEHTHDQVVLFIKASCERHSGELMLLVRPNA

T2: GST-KIAA0303 PDZ domain fusion protein (Homo sapiens (Human), UniProt O15021 1138-1228)
T2 construct: also called K303; not shown: glutathione S-transferase encoded by vector pGEX-3X (Pharmacia)
T2 sequence: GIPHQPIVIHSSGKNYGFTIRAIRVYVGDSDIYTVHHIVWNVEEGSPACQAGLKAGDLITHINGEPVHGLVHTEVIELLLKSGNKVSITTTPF

T3: GST-prIL16 fusion protein (PDZ domains 1-2) (Homo sapiens (Human), UniProt Q14005 1111-1324)
T3 construct: also called putative interleukin 16 precursor; not shown: glutathione S-transferase encoded by vector pGEX-3X (Pharmacia)
T3 sequence: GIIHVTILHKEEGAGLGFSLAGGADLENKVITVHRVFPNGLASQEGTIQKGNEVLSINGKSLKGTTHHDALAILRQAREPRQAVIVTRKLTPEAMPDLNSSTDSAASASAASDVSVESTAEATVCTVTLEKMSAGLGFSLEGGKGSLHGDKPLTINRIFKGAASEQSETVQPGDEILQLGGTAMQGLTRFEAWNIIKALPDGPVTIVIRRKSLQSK

T4: GST-MPP1 PDZ domain fusion protein (Homo sapiens (Human), UniProt Q00013 67-152)
T4 construct: also called p55; 55 Kd erythrocyte membrane protein; not shown: glutathione S-transferase encoded by vector pGEX-3X (Pharmacia)
T4 sequence: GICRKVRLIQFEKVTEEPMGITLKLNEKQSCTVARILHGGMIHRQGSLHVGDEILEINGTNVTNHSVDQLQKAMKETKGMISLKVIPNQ

T5: GST-cytohesin binding protein PDZ domain fusion protein (Homo sapiens (Human), UniProt O60759 74-165)
T5 construct: also called CBP; not shown: glutathione S-transferase encoded by vector pGEX-3X (Pharmacia)
T5 sequence: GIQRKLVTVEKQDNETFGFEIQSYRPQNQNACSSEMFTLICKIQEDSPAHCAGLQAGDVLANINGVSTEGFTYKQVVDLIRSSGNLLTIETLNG

T6: GST-RGS12 PDZ domain fusion protein (human, UniProt O14924 17-85)
T6 construct: also called human regulator of G-protein signalling 12; not shown: glutathione S-transferase encoded by vector pGEX-3X (Pharmacia)
T6 sequence: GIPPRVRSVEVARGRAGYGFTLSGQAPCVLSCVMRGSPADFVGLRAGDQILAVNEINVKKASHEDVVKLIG

T7: GST-TAX-IP40 PDZ domain fusion protein (human, UniProt Q6B4M5 150-252 (rat entry))
T7 construct: also called TAX40; not shown: glutathione S-transferase encoded by vector pGEX-3X (Pharmacia)
T7 sequence: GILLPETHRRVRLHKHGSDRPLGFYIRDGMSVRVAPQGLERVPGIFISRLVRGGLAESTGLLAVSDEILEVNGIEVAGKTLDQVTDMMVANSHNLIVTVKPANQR

T8: SP short PDZ-GST fusion protein (Homo sapiens (Human), UniProt O43464 350-435)
T8 construct: The label SP short is not explained in the excerpts
T8 sequence: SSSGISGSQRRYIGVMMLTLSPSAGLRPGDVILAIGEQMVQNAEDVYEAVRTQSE

T9: GST-TAX-IP2 PDZ domain fusion protein (human, UniProt O14908 129-216)
T9 construct: also called TAX-1P2; TAX2; not shown: glutathione S-transferase encoded by vector pGEX-3X (Pharmacia)
T9 chain: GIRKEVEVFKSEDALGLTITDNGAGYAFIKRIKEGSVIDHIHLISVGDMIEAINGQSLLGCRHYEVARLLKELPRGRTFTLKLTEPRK

T10: K858 PDZ-GST fusion protein (Homo sapiens (Human), UniProt Q8WWI1 1038-1131)
T10 construct: Order of GST and PDZ part and limits not seen in the excerpts
T10 sequence: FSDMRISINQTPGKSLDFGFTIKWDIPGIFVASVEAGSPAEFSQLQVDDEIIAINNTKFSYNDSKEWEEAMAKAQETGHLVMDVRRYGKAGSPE

T11: GST-AF6 PDZ domain fusion protein (Homo sapiens (Human), UniProt P55196 1001-1093)
T11 construct: also called af-6 protein; not shown: glutathione S-transferase encoded by vector pGEX-3X (Pharmacia)
T11 sequence: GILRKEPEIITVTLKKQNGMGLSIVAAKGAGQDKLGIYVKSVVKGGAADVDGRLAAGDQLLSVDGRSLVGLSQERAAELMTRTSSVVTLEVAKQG

T12: ConEn PDZ-GST fusion protein (Homo sapiens (Human), UniProt Q969H4 193-287)
T12 construct: The label ConEn is not explained in the excerpts
T12 sequence: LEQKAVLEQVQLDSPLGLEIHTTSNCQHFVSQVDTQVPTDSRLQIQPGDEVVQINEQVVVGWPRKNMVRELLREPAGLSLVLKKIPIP


Key:
Assay in all cases: A/G assays
[1] = biological target: T1, GST-PTN-4 PDZ domain fusion protein
[2] = biological target: T2, GST-KIAA0303 PDZ domain fusion protein
[3] = biological target: T3, GST-prIL16 fusion protein (PDZ domains …)
[4] = biological target: T13, NOS1 PDZ-GST fusion protein (Homo sapiens (Human), UniProt P29475 11-100)
T13 construct: Order of GST and PDZ part and limits not seen in the excerpts
T13 sequence (P29475 11-100 limits assumed): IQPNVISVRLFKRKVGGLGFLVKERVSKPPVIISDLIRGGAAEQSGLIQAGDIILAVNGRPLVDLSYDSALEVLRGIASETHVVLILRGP

[5] = biological target: T4, GST-MPP1 PDZ domain fusion protein
[6] = biological target: T5, GST-cytohesin binding protein PDZ …
[7] = biological target: T14, NSP PDZ-GST fusion protein (Homo sapiens (Human), UniProt Q92743 370-466)
T14 construct: The label NSP is not explained in the excerpts
T14 sequence (Q92743 other isoform, or with tags, fused parts or gaps limits assumed): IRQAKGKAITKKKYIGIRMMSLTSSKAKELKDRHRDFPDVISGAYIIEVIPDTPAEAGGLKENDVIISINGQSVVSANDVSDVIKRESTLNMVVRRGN

[8] = biological target: T6, GST-RGS12 PDZ domain fusion protein
[9] = biological target: T7, GST-TAX-IP40 PDZ domain fusion protein
[10] = biological target: T8, SP short PDZ-GST fusion protein
[11] = biological target: T9, GST-TAX-IP2 PDZ domain fusion protein
[12] = biological target: T15, GST-TIAM1 PDZ domain fusion protein (Homo sapiens (Human), UniProt Q13009 845-931)
T15 construct: also called TLAM1; T-lymphoma invasion and metastasis inducing protein 1; not shown: glutathione S-transferase encoded by vector pGEX-3X (Pharmacia)
T15 sequence (Q13009 other isoform, or with tags, fused parts or gaps): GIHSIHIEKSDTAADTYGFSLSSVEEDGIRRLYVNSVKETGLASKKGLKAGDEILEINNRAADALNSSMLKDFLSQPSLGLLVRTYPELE

[13] = biological target: T10, K858 PDZ-GST fusion protein
[14] = biological target: T11, GST-AF6 PDZ domain fusion protein
[15] = biological target: T12, ConEn PDZ-GST fusion protein
[16] = biological target: T16, PICK1 PDZ-GST fusion protein (Bos taurus (Bovine), UniProt Q2T9M1 17-105)
T16 construct: Order of GST and PDZ part and limits not seen in the excerpts
T16 sequence (Q2T9M1 other isoform, or with tags, fused parts or gaps limits assumed): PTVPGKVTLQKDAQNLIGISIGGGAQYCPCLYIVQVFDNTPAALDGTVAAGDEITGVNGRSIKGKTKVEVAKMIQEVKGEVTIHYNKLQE

binding result [1]	binding result [2]	binding result [3]	binding result [4]	binding result [5]	binding result [6]	binding result [7]	binding result [8]	binding result [9]	binding result [10]	binding result [11]	binding result [12]	binding result [13]	binding result [14]	binding result [15]	binding result [16]	Binder
no binding	no binding	no binding	no binding	no binding	no binding	no binding	no binding	no binding	no binding	no binding	no binding	no binding	no binding	no binding	no binding	Biotin-GKGKSIGRAPEASLQDKEGA (Only the last four residues are seen in the excerpts) [CC CKR-2 C-terminal peptide AA42L]
no binding	no binding	no binding	no binding	no binding	no binding	no binding	no binding	no binding	no binding	no binding	no binding	no binding	no binding	no binding	no binding	Biotin-YSATYSELEDPGEMSPPIDL (also called FceRlb; FcεRβI) [FceRIb C-terminal peptide AA25L, biotinylated]
no binding	no binding	no binding	no binding	no binding	no binding	no binding	no binding	no binding	no binding	no binding	no binding	no binding	no binding	no binding	no binding	Biotin-DLGNMEENKKLEENNHKTEA (also called CD166 (CD6L)) [CD166 C-terminal peptide AA20L, biotinylated]
no binding	no binding	no binding	no binding	no binding	no binding	no binding	no binding	no binding	no binding	no binding	no binding	no binding	no binding	no binding	no binding	Biotin-VTSPNKHLGLVTPHKTELV [CD83 C-terminal peptide AA47L, biotinylated]
no binding	no binding	no binding	no binding	no binding	no binding	no binding	no binding	no binding	no binding	no binding	no binding	no binding	no binding	no binding	no binding	Biotin-LERVSSTSPSTGEHELSAGF (Only the last four residues are seen in the excerpts) [CC CKR-1R C-terminal peptide AA41L]
no binding	no binding	no binding	no binding	no binding	no binding	no binding	no binding	no binding	no binding	no binding	no binding	no binding	no binding	no binding	no binding	Biotin-DTPSSSYTQSTMDHDLHDAL (Only the last four residues are seen in the excerpts) [CC CKR-4 C-terminal peptide AA44L]
no binding	no binding	no binding	no binding	no binding	no binding	no binding	no binding	no binding	no binding	no binding	no binding	no binding	no binding	no binding	no binding	Biotin-LASKSAEEGKQIPDSLSTDL [DOCK2 C-terminal peptide AA40L, biotinylated]
no binding	no binding	no binding	no binding	no binding	no binding	no binding	no binding	no binding	no binding	no binding	no binding	no binding	no binding	no binding	no binding	Biotin-KKGTYLTDETHREVKFTSL [CD46 (Form 1) C-terminal peptide AA10L, biotinylated]
